The source of these data is patent US20250361326A1 (Hoffmann-La Roche, published 2025).

Assay [1] has as its target T1, VEGF (UniProt P15692-9 27-147).
T1 construct: also called VEGF121
T1 sequence (looked up): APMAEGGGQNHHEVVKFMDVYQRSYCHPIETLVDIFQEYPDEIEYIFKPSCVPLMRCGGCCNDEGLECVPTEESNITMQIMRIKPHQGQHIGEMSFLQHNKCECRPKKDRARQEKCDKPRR
In words: bridging ELISA, VEGF coated, digoxygenin-Cy5 detection; binder has dig arm, no VEGF arm. On the technique in general: ELISA stands for enzyme-linked immunosorbent assay.

In assay [2] the target is T1, VEGF. Nature of the assay: bridging ELISA of exchange reaction mix, 1.3 µM input; VEGF coated, biocytinamid-Cy5 detection; highest value = 100%; binder has neither arm.
Assay [3] deals with T1, VEGF. In words: bridging ELISA of exchange reaction mix, 1.3 µM input; VEGF coated, digoxygenin-Cy5 detection; highest value = 100%; binder has dig arm, no VEGF arm.

B1: anti-dig/anti-fluos bispecific antibody (exchange reaction: dig MHCFcRP-knob-E357K row x fluos MHCFcRP-hole-K370E column) (bispecific antibody, human IgG1, not shown: small tags and cut ends)
heavy 1: QVQLVESGGGLVKPGGSLRLSCAASGFTFSDYAMSWIRQAPGKGLEWVSSINIGATYIYYADSVKGRFTISRDNAKNSLYLQMNSLRAEDTAVYYCARPGSPYEYDKAYYSMAYWGQGTTVTVSSASTKGPSVFPLAPSSKSTSGGTAALGCLVKDYFPEPVTVSWNSGALTSGVHTFPAVLQSSGLYSLSSVVTVPSSSLGTQTYICNVNHKPSNTKVDKKVEPKSC
light 1: not shown
heavy 2: not shown
light 2: DIVMTQTPLSLSVTPGQPASISCKSSQSLVHSNGNTYLRWYLQKPGQSPKVLIYKVSNRVSGVPDRFSGSGSGTDFTLKISRVEAEDVGVYYCSQSTHVPWTFGQGTKLEIKRTVAAPSVFIFPPSDEQLKSGTASVVCLLNNFYPREAKVQWKVDNALQSGNSQESVTEQDSKDSTYSLSSTLTLSKADYEKHKVYACEVTHQGLSSPVTKSFNRGEC
notes: Product of the 2/3-IgG exchange reaction, tested as reaction mix; human IgG1 knob-into-hole format; also called dig/fluos bsAb
With B1, the binding result with VEGF [1] is “no binding (tested: 1.3 µM input molecule concentration)”. For the same molecule, the relative signal intensity was 9.1% with VEGF [2] and 6.7% in the assay with VEGF [3].
